From US20020177177A1 (PROLIFIX, published 2002)

Target: T1, E. coli-produced 6X histidine-tagged cyclin D1 (UniProt P24385 1-295, limits assumed)
T1 construct: also called His-cyclin D1; His-D1; not shown: 6X histidine tag
Test: GST pull-down on glutathione-agarose, anti-cyclin D1 Western blot
Method: To ask which domain or motif of SRC-1 is involved in cyclin D1 binding, we generated a series a GST-SRC1 deletion mutants. […] In the in vitro binding assay, the series of GST-containing proteins were incubated with bacterially expressed His-tagged cyclin D1 and immobilized on glutathione-agarose. Cyclin D1 binding was detected by Western blot analysis using anti-cyclin D1 antibody. Binding was not detected to GST alone.

T1 sequence (P24385 whole entry): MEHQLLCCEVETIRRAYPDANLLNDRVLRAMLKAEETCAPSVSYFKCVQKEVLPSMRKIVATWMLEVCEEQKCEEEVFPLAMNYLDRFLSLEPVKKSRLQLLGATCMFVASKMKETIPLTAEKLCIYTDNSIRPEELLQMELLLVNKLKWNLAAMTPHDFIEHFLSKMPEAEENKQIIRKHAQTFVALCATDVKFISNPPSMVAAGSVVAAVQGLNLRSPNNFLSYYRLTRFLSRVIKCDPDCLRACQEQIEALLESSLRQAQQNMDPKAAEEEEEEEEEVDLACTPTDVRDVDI

binding result: no binding
B1: GST-SRC1 361-568 (other, human, UniProt Q15788 361-568, looked up)
chain: IHIIDREHSGLSPQDDTNSGMSIPRVNPSVNPSISPAHGVARSSTLPPSNSNMVSTRINRQQSSDLHSSSHSNSSNSQGSFGCSPGSQIVANVALNQGQASSQSSNPSLNLNNSPMEGTGISLAQFMSPRRQVTSGLATRPRMPNNSFPPNISTLSSPVGMTSSACNNNNRSYSNIPVTSLQGMNEGPNNSVGFSASSPVLRQMSSQN
notes: not shown: glutathione-S-transferase (GST) fusion partner
